Positions of bridges follow the written chain, without caps; N, C: chain ends. Non-standard residues stand in square brackets, D forms with d. No end group written: not given here. Cy5.5 = cyanine dye Cy5.5, conjugated via NHS ester; Cy3 = cyanine dye Cy3, conjugated via NHS ester
Columns and labels:
GC-C receptor = GC-C receptor (Homo sapiens, UniProt P25092); experiment: Binding of dye-conjugated SP-333 to GC-C receptors (method not specified)
Excerpt: (§1) SP-333 was labeled with an appropriate infrared (IR) fluorescence dye for in vivo imaging purposes. The peptide was to be labeled with an appropriate IR dye through the reaction of a N-hydroxysuccinamidyl (NHS) activated ester with the amine group of the peptide. Our initial test with the VivoTag680 NHS ester supplied by PerkinElmer, Inc was not successful. […] Labeling SP-333 with Cy3 and the subsequent HPLC purification was successful, with an overall labeling efficiency of 30% achieved. […] Both Cy3 and Cy5.5 belong to a family of cyanine fluorescence dyes used in bioimaging applications. […] We performed similar binding experiments with the cell membranes isolated from T84 cells and from rat intestinal tissues. […] Thus, SP-333-IR680 fluorescence was custom synthesized.

[1] = target: T1, GC-C receptors expressed on the surface of T84 cells (Homo sapiens, UniProt P25092); experiment: Binding of Cy3/Cy5.5 probes to T84 cells
T1 construct: endogenous in cells; host or cells: T84 cells, intact or as isolated cell membranes
Excerpt: as §1

[2] = target: T2, cell membranes isolated from T84 cells (Homo sapiens, UniProt P25092); experiment: Binding of Cy3/Cy5.5 probes to cell membranes isolated from T84 cells
T2 construct: endogenous in cells; host or cells: T84 cells, intact or as isolated cell membranes
Excerpt: as §1

rat intestinal fragments = experiment: Ex vivo binding of Cy3/Cy5.5 probes with rat intestinal fragments
Excerpt: as §1

[3] = target: T3, cell membranes isolated from rat intestinal tissues (Rattus norvegicus, UniProt P23897); experiment: Binding of Cy3/Cy5.5 probes to cell membranes from rat intestinal tissues
T3 construct: cell membranes isolated from T84 cells and from rat intestinal tissues; from tissue; host or cells: rat intestinal tissue membranes
T3 sequence (P23897 23-1072): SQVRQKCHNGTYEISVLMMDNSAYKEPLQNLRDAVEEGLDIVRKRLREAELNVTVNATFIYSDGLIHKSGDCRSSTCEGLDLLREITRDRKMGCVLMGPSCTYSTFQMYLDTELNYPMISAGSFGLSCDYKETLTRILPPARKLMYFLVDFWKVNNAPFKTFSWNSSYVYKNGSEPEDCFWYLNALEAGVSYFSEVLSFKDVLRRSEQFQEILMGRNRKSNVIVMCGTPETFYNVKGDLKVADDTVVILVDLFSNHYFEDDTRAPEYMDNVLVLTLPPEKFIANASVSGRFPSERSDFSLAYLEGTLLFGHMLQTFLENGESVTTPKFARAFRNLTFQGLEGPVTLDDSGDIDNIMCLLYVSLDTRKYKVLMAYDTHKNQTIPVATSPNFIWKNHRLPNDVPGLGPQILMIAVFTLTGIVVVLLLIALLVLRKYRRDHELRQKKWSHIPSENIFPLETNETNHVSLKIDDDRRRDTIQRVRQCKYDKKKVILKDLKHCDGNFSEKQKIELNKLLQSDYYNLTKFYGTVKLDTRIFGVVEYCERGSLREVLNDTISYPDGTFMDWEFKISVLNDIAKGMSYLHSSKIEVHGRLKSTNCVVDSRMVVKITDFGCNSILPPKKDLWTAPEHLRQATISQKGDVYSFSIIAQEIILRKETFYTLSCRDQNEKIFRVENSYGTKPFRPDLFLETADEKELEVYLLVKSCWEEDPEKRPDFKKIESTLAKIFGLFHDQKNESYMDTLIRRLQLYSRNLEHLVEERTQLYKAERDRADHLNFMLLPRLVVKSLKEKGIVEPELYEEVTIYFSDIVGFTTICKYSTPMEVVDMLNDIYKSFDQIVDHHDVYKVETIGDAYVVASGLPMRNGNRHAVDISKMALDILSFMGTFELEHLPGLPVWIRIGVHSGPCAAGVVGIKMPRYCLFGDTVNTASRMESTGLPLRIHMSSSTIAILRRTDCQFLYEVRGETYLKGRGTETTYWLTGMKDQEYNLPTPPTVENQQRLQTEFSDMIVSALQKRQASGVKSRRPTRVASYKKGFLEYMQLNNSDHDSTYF
Excerpt: as §1

[4] = target: T4, GC-C receptor in rat intestinal tissues (rat, UniProt P23897 23-1072); experiment: binding to cell membranes from rat intestinal tissues; ex vivo binding with rat intestinal fragments
T4 construct: whole, on cells; the protein target is inferred from the preceding sentence on GC-C receptors; also called cell membranes from rat intestinal tissues; rat intestinal fragments
T4 sequence (looked up): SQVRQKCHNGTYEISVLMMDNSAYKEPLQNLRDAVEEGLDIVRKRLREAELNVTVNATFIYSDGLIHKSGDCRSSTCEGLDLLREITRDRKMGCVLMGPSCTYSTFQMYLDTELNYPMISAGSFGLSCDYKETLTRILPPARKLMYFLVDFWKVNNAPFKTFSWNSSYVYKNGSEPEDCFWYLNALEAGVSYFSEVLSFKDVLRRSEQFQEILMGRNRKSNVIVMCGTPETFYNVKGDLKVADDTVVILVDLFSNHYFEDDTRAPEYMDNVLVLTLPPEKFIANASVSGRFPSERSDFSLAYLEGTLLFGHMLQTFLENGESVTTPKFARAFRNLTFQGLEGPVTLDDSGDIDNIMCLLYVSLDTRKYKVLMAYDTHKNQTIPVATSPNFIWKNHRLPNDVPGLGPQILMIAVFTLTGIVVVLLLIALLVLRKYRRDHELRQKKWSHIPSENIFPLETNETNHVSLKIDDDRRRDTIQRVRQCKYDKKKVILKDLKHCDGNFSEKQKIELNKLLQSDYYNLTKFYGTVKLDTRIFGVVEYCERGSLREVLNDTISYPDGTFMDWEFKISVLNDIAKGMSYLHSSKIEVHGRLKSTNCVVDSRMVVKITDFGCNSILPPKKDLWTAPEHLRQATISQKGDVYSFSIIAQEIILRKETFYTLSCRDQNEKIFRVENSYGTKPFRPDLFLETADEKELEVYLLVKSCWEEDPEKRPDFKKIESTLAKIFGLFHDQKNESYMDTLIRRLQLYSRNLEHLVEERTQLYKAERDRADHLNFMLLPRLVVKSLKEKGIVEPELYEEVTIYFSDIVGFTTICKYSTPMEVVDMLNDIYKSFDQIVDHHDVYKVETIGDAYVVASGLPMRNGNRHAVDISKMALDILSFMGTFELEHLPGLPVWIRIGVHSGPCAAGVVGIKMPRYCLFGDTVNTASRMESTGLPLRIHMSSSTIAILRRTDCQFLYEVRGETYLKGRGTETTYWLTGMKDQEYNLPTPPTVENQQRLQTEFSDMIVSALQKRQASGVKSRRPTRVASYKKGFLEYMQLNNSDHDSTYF

[5] = target: T5, Guanylate cyclase C (GC-C) receptor expressed on human T84 cells (human, UniProt P25092 24-1073); experiment: competition of unlabeled SP-333 against IR680-SP-333 probe binding on T84 cells
T5 construct: whole, on cells; also called GC-C receptors
T5 sequence (P25092 24-1073): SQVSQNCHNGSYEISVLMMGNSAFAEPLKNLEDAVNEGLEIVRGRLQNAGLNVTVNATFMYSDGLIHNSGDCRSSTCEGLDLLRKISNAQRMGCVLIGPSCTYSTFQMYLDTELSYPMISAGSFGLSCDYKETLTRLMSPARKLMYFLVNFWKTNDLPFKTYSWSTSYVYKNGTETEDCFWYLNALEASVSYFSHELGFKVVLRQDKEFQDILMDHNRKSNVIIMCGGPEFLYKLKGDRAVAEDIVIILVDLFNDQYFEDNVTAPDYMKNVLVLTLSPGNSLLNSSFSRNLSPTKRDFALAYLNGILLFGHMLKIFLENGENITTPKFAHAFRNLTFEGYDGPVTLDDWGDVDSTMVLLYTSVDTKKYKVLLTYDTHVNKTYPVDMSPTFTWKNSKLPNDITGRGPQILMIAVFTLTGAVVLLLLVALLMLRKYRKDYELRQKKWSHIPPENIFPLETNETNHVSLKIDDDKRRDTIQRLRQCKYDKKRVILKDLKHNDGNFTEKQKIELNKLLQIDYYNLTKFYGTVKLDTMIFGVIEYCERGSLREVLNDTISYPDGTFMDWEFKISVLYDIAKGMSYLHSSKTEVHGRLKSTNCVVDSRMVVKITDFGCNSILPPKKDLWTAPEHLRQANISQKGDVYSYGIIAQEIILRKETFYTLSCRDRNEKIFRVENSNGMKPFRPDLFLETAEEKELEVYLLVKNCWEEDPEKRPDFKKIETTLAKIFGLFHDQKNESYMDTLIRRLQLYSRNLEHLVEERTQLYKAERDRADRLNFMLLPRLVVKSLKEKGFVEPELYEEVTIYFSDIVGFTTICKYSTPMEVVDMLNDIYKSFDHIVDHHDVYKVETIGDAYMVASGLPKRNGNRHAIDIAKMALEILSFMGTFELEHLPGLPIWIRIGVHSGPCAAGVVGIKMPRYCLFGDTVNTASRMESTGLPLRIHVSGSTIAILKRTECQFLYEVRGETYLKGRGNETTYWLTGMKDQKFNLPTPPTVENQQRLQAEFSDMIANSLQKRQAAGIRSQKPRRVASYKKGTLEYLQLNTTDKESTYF

T1 sequence (P25092 24-1073): as above
Chain of GC-C receptor (P25092 24-1073): as above
T2 sequence (P25092 24-1073): as above

Cy3-SP-333: SP-333 conjugated with cyanine fluorescence dye Cy3-NHS ester (Cy3-[dN]DECELCVNVACTGC[dL]; disulfide 4-12, 7-15)
binding to GC-C receptors after conjugation of dye to the N-terminal of SP-333 (GC-C receptor): without appreciable loss | specific binding to GC-C receptors on the surface of T84 cells [1]: failed to exhibit specific binding | specific binding to cell membranes isolated from T84 cells [2]: did not show any specific binding | specific binding in ex vivo binding with rat intestinal fragments (rat intestinal fragments): lack of specific binding | specific binding to cell membranes isolated from rat intestinal tissues [3]: did not show any specific binding

Cy5.5-SP-333: SP-333 conjugated with cyanine fluorescence dye Cy5.5 NHS ester ({Cy5.5}-[dN]DECELCVNVACTGC[dL]; disulfide 4-12, 7-15)
binding to GC-C receptors after conjugation of dye to the N-terminal of SP-333 (GC-C receptor): without appreciable loss | specific binding to GC-C receptors on the surface of T84 cells [1]: failed to exhibit specific binding | specific binding to cell membranes isolated from T84 cells [2]: did not show any specific binding | specific binding in ex vivo binding with rat intestinal fragments (rat intestinal fragments): lack of specific binding | specific binding to cell membranes isolated from rat intestinal tissues [3]: did not show any specific binding

Cy3-[dN]DECELCVNVACTGC[dL] (disulfide 4-12, 7-15) [Cy3-SP-333]
binding result [4]: no binding

{Cy5.5}-[dN]DECELCVNVACTGC[dL] (disulfide 4-12, 7-15) [Cy5.5-SP-333]
binding result [4]: no binding

B1: SP-333 (dolcanatide), unlabeled (peptide)
peptide: [dN]DECELCVNVACTGC[dL]
modifications: disulfide 4-12, 7-15
notes: Synthetic analog of uroguanylin; also called Api 1251
IC50 [5]: ~1600 nM
